{"source": "paper doi:10.1101/2023.10.23.563687", "target": "full-length BCL6 construct overexpressed in HEK293T cells (ternary complex nanoBRET) (UniProt P41182)"}
{"substance": "full-length CDK9 construct overexpressed in HEK293T cells (ternary complex nanoBRET) (from UniProt P50750 1-372) (enzyme)", "values": [{"measurement": "cell killing of SUDHL5 DLBCL cells by CDK-TCIP1, 72-hour cell viability assay", "result": 6.9, "unit": "nM"}]}
